# Test results from publication PMC8887544.
# Experiments:
# [1] = target: Cas8f:Cas5f heterodimer (Xanthomonas albilineans, type I-F Cascade subunit) (Xanthomonas albilineans); assay: ITC; 25°C; AcrIE4-F7 (250 μM) injected into Cas8f:Cas5f (35 μM) in the cell; 20 mM Tris-HCl pH 7.5, 150 mM NaCl, 1 mM TCEP
# [2] = target: (His)6-MBP-tagged Cas8e (P. aeruginosa, type I-E) (P. aeruginosa (PRD-10 genomic DNA)); assay: ITC; 25°C; 20 μM of either AcrIE4-F7 or (His)6-MBP tagged Cas8e in the cell, titrated with 150-200 μM of the partner, both directions; 20 mM HEPES pH 7.0, 150 mM NaCl, 1 mM TCEP, 5% glycerol; triplicate
Substance,Kd [2] [µM],dH [2] [kJ/mol],stoichiometry N [2],Kd [1] [µM]
AcrIE4-F7 (natural protein),0.2,-61.5,1,0.026
"AcrIE4-F7^CTD (C-terminal domain of AcrIE4-F7, residues 53-119) (domain or fragment)",–,–,–,0.013
"AcrIE4-F7^NTD (N-terminal domain of AcrIE4-F7, residues 1-52) (domain or fragment)",0.14,-75.7,0.8,–

# More lines, in order of falling Kd [2], values ahead:
Kd [2] [µM],dH [2] [kJ/mol],stoichiometry N [2],Substance,Kd [1] [µM]
4.8,-46.4,0.8,AcrIE4-F7(D30K/E31K) (natural protein),–
3.5,-23.4,1.1,AcrIE4-F7(Y20A) (natural protein),–
0.43,-49,1,AcrIE4-F7(E46K) (natural protein),–
0.4,-95.4,0.8,AcrIE4-F7(E12K/D13K) (natural protein),–
0.19,-53.6,0.9,AcrIE4-F7(E38K/D39K) (natural protein),–
